Measured values published in US20210269532A1 (SYMPHOGEN A S, published 2021).
Positions count from the first letter of the chain named.

T1: His-tagged human AXL extracellular domain (recombinant) (human, UniProt P30530 26-451)
T1 construct: treated as one molecule; also called human AXL ECD; AXL-His ECD; not shown: His tag
T1 sequence: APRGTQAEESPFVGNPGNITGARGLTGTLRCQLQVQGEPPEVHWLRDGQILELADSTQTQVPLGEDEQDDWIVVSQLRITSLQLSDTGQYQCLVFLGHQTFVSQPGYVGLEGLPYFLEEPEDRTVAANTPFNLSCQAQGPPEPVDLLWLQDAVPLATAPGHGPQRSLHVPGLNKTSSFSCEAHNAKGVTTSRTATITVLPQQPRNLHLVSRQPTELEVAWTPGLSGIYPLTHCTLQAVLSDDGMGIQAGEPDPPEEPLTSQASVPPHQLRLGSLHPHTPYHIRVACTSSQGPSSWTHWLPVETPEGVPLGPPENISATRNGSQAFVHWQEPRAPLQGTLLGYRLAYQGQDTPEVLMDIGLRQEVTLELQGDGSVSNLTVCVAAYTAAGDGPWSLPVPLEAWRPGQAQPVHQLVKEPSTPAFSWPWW

T2: human AXL extracellular domain transiently expressed on CHO-S cells (human, UniProt P30530 26-451)
T2 construct: also called human AXL ECD on CHO-S cells
T2 sequence: T1 sequence

B1: 23203_3 (antibody, human IgG1, kappa, L234A L235A, V domains shown)
VH: QVQLQQWGAGLLKPSETLSLTCTVSGGSFSGYYWTWIRQPPGKGLEWIGEINHAGSTNYNPSLKSRVTISVDTSKNQFSLKLSSVTAADTAVYYCSSREYSSRWHFDYWGQGTLVTVSS
VL: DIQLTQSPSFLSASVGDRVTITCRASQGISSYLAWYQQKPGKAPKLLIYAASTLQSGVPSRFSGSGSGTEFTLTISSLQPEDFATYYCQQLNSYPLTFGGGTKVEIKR
notes: Fully human IgG1-LALA, kappa
B2: 23203_4 (antibody, human IgG1, kappa, L234A L235A, V domains shown)
VH: B1 VH with T23A, S25Y
VL: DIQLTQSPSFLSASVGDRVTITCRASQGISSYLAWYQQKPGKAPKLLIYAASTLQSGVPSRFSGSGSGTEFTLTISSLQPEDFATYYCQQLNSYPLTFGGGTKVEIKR
notes: Fully human IgG1-LALA, kappa
B3: 23203_1 (antibody, human IgG1, kappa, L234A L235A, V domains shown)
VH: B1 VH with Q6E, W7S, A9P, L12V, T35S
VL: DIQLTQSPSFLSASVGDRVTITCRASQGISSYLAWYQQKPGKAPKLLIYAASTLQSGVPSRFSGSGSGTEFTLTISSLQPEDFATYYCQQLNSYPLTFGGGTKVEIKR
notes: Fully human IgG1-LALA, kappa
B4: 23203_2 (antibody, human IgG1, kappa, L234A L235A, V domains shown)
VH: B1 VH with T23A, S25Y, A54S
VL: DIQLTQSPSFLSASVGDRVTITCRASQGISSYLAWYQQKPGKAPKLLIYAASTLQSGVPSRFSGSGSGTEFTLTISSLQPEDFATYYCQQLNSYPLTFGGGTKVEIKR
notes: Fully human IgG1-LALA, kappa
B5: 22995 (antibody, human IgG1, kappa, L234A L235A, V domains shown)
VH: EVQLVESGGSLVQPGGSLRLSCAASGFTFSSSAMSWVRQAPGKGLEWVSTISGSDSSTYDADSVKGRSTISRDNSKNTLYLQMNSLRADDTAVYYCAKKGAYCSGTICYDPFDYWGQGTLVTVSS
VL: DIVLTQSPVLAVSLGQRATISCRASQSVSISSINLMHWYQQKPGQQPKLLIYRASNLASGIPARFSGSGSGTDFTLTIDPVQADDIAAYYCQQSRESPLTFGGGTKVEIKR
notes: Fully human IgG1-LALA, kappa
B6: 22883 (antibody, human IgG1, kappa, L234A L235A, V domains shown)
VH: EVQLVESGGGLVQPGGSLRLSCAASGFTFSSYAMSWVRQAPGKGLEWVSAISGGGDYTYYADSVKGRFTISRDNSKNTLYLQMNSLRAEDTAVYYCAKEEWELRGPFRYWGQGTLVTVSS
VL: DIQMTQSPSTLSASVGDRVTITCRASQSISSWLAWYQQKPGKAPKFLIYKASSLESGVPSRFSGSGSGTEFTLTISSLQPDDFATYYCQQYNGFSWTFGQGTKVEIKR
notes: Fully human IgG1-LALA, kappa

Columns and labels:
[1] = target: T1, His-tagged human AXL extracellular …; test: SPR (IBIS MX96), antibody captured, monovalent His-tagged AXL ECD in solution, 1:1 fit
Method: (§1) The kinetic binding analysis was performed by surface plasmon resonance (SPR), using a Continuous Flow Microspotter (CFM, Wasatch Microfluidics, Salt Lake City, US) combined with an IBIS MX96 SPR instrument (IBIS Technologies, The Netherlands).
(§2) His-tagged human and cynomolgus AXL ECD were expressed in Expi293F cells and purified by Ni-NTA chromatography. Binding kinetics were measured under monovalent antigen conditions by immobilizing anti-AXL antibodies and keeping the monovalent AXL antigen in solution. Antibodies were captured onto a G-a-hu-IgG Fc SensEye® (Ssens BV, The Netherlands) for 15 minutes using a Continuous Flow Microspotter (CFM, Wasatch Microfluidics, Salt Lake City, US). After spotting, the SensEye® was positioned in the IBIS MX96 biosensor and captured proteins were fixed to the surface using FixIT kit (Ssens BV, The Netherlands). Kinetic analysis was performed by applying kinetic titration series (Karlsson et al., Anal Biochem. 349(1):136-47 (2006)), with antigen injections at increasing concentrations from 0.14 nM to 100 nM. Antigen association and dissociation was performed for 15 minutes. After each antigen injection series, the surface was regenerated by 100 mM H₃PO₄, pH 3 regeneration buffer. The recorded binding responses were fitted to a simple Langmuir 1:1 binding model with Scrubber 2 software for calculation of the on-rate (kₒₙ or ka), off-rate (koff or kd) and affinity (KD) constants.

[2] = target: T3, His-tagged cynomolgus AXL extracellular domain (recombinant) (cynomolgus); test: as above
T3 construct: extracellular domain; Expressed in Expi293F cells, purified by Ni-NTA; also called cynomolgus AXL ECD
Method: as §1, §2

[3] = target: T2, human AXL extracellular domain …; test: flow cytometry, serial dilution on CHO-S cells transiently expressing human AXL ECD, AF647 anti-human IgG secondary, GeoMean (RL1-H)
Method: (§3) Six anti-human AXL antibodies and reference antibody analogues were evaluated by flow cytometry for in vitro binding to human or cynomolgus AXL extracellular domain transiently expressed on CHO-S cells. For comparison, reference antibody analogues were included in the evaluation. All antibodies were incubated in serial dilutions together with the transiently transfected CHO-S cells for 30 min at 4° C. Following two washing steps, the cells were incubated with AF647-conjugated secondary anti-human IgG (H+L) antibody for 30 min at 4° C. A final washing step was done prior to acquisition of the cells on an iQue Plus screener. Results were calculated by GrafPad Prism software.

[4] = target: T4, cynomolgus AXL extracellular domain transiently expressed on CHO-S cells (cynomolgus); test: flow cytometry, serial dilution on CHO-S cells transiently expressing cynomolgus AXL ECD, AF647 anti-human IgG secondary, GeoMean (RL1-H)
T4 construct: extracellular domain; also called cynomolgus AXL ECD on CHO-S cells
Method: as §3

| Binder | Kd [1] [nM] | koff [1] [s⁻¹] | kon [1] [M⁻¹ s⁻¹] | Kd [2] [nM] | koff [2] [s⁻¹] | kon [2] [M⁻¹ s⁻¹] | EC50 (read off the curve) [3] [µg/mL] | EC50 (read off the curve) [4] [µg/mL] |
| --- | --- | --- | --- | --- | --- | --- | --- | --- |
| B1 | 15 | 0.0016 | 110000 | 13 | 0.0018 | 140000 | ~0.02 | ~0.02 |
| B2 | 25 | 0.0023 | 90000 | 15 | 0.0021 | 150000 | ~0.02 | ~0.02 |
| B3 | 15 | 0.0021 | 140000 | 13 | 0.0024 | 180000 | ~0.02 | ~0.02 |
| B4 | 11 | 0.0016 | 140000 | 15 | 0.0016 | 110000 | ~0.02 | ~0.02 |
| B5 | 0.69 | 0.00057 | 820000 | 80 | 0.0011 | 14000 | ~0.007 | ~0.4 |
| B6 | 9.6 | 0.00031 | 32000 | 7.2 | 0.0002 | 28000 | ~0.07 | ~0.05 |
